Measurements published in paper PMC314469, “Protein Interaction Networks by Proteome Peptide Scanning” (PLoS Biology, 2004).

Legend:
Experiment in all cases: SPOT array
[1] = target: T1, Boi1 SH3 (BOI1_YEAST), P38041
T1 chain: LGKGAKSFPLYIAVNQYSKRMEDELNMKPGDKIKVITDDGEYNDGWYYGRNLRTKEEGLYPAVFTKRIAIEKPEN

[2] = target: Sho1 SH3 (SHO1_YEAST), P40073
[3] = target: T2, Yhr016c SH3 (YSC84_YEAST), P32793
T2 chain: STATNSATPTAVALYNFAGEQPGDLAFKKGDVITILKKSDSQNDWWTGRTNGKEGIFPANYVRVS

[4] = target: T3, Rvs167 SH3 (RV167_YEAST), P39743
T3 chain: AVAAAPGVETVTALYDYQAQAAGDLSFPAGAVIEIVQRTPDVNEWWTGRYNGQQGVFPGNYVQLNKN

[5] = target: T4, Yfr024 SH3 (LSB3_YEAST), P43603
T4 chain: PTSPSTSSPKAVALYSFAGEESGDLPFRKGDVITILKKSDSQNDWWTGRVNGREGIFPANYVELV

[6] = target: T5, Boi2 SH3 (BOI2_YEAST), P39969
T5 chain: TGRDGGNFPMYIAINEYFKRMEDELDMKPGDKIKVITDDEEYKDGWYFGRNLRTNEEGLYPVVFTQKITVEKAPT

[7] = target: T6, Myo5 SH3 (MYO5_YEAST), Q04439
T6 chain: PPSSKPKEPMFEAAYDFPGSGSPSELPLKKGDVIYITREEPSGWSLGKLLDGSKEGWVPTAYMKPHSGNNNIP

Chain of Sho1 SH3 (SHO1_YEAST), P40073 (P40073 295-366): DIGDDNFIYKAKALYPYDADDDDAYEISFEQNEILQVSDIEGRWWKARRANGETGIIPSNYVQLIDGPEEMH

Binder	normalised SPOT signal, Boehringer light units (BLU); mean over the file's lines of this peptide [1]	normalised SPOT signal, Boehringer light units (BLU); mean over the file's lines of this peptide [2]	normalised SPOT signal, Boehringer light units (BLU); mean over the file's lines of this peptide [3]	normalised SPOT signal, Boehringer light units (BLU); mean over the file's lines of this peptide [4]	normalised SPOT signal, Boehringer light units (BLU); mean over the file's lines of this peptide [5]	normalised SPOT signal, Boehringer light units (BLU); mean over the file's lines of this peptide [6]	normalised SPOT signal, Boehringer light units (BLU); mean over the file's lines of this peptide [7]
LIWHKNKPTEPDNK [YAR009C 1032-1045]	120	82.2	94.9	102	587	29.2	155
LIDFKDYPDVPKVP [YNL231C 198-211]	15.5	36	2	28.2	12.7	47.9	154
LDLSKYGPLPPSRA [YLR143W 384-397]	1630	78.9	256	207	359	20.4	154
LGPLKYAPHLPFSK [YJL176C 589-602]	133	227	150	81.1	213	71.6	428
LDSMKNLPLNPSKK [YDL027C 309-322]	178	8000	78.8	72.9	348	41.3	268
LGSEKSSPLAPAVA [YDL197C 382-395]	72.6	11.2	26.8	64.8	21.4	52.5	122
LDTHKESPLRPKVR [YKR003W 305-318]	2820	46.9	32.8	34.1	58.4	18.9	199
LGLHKWLPDIPLFE [YOR336W 752-765]	180	10800	44.6	16.5	49	15.1	168
LITDKEYPVRPAYT [YKL196C 79-92]	139	7.7	19.3	17.5	126	21.9	136
LEFPKDYPLSPPKL [YMR022W 58-71]	110	78.8	14.8	114	64.1	0	135
LDVRRIYPKGPLLV [YIL113W 50-63]	4730	131	32.3	34.3	157	10.8	232
LFDEKVKPQIPQLR [YML034W 45-58]	59.1	18.8	15.7	66.6	42.8	4.9	89.2
LFGIRNNPFIPITG [YLR214W 271-284]	281	15.8	426	139	342	25.5	170
LDKGKHVPSKPVSN [YKL054C 145-158]	364	76.4	4.8	60.9	18.1	12.7	201
LDPGKNTPGLPEET [YAL048C 610-623]	37.7	-0	15.3	33.4	36.6	126	156
LIWHKNKPTKPDNK [YBL101W-B 1606-1619]	268	106	71.1	85.3	862	27.9	300
